The data set deals with the molecule itself. Briefly: native gel or EMSA. In general terms: Mobility shift assays separate free from complexed probe on a gel.

B1: MoOsm1-GFP (enzyme)
chain: MAEFVRAQIFGTTFEITSRYSDLQPVGMGAFGLVCSARDQLTNQNVAIKKIMKPFSTPVLAKRTYRELKLLKHLKHENVISLSDIFISPLEDIYFVTELLGTDLHRLLTSRPLEKQFIQYFLYQIMRGLKYVHSAGVVHRDLKPSNILVNENCDLKICDFGLARIQDPQMTGYVSTRYYRAPEIMLTWQKYDVEVDIWSAGCIFAEMLEGKPLFPGKDHVNQFSIITELLGTPPDDVINTIASENTLRFVKSLPKRERQPLKNKFKNADPSAIDLLERMLVFDPKKRITATEALAHEYLTPYHDPTDEPIAEEKFDWSFNDADLPVDTWKIMMYSEILDYHNAEAGMQQMDDQFTGQ
As to B1, the stoichiometry N (usually a count of units in the complex or per binding partner) was determined as 2.
